Assay: soluble on expression in E. coli; label from the status in PepcDB or PDB records

Sequence	soluble on expression in E. coli
MMKPNIDFKRLKAYVQANGSYSLVVKGDSIEVHFSPNFPEAIPHLPDNLPVEHIMYGKVENGIVYFYRFETISSFGTTYNDLTDDDPIMEWLKYI	not soluble
MMKQSFLANERIYLRAVEPEDLDLMYEMENDPSMWDISSFTVPYSRFVLKQYIEGSQSDMFADKQLRLMIMRRKDNCTLGTVDITDFVPLHSRGAVGIAVHSNYRQEGYASDALKLLCEYAFNFLFIKQLYAHIAVDNEPSLRLFNSCGFTQCGVLKEWLLTHEGYKDAVLVQCMNPKR	not soluble
MMKSIATLISVVLCSFSAWAQTITAAQDPWPPFVMENAQQKGLSVDIVTAAFATQGYTVEFTIMPWSRALNDVKEGKIDILPATWFTQERTAYLTYSDNYLTNQVKFIKKAGDNFEFAGLASLNGKKVGIVRGYGYGDEFMNDPSFFRPESTDLKQNLQKLQAGRIDLAVEDELVAKSIITEAGMNLADFAFTNQAISENPLHVTSGKANPRSEELVAAFNKGLAEIKANGTFDKLLADYGIK	not soluble
MMKTMRIAAIPGDGIGKEVLPEGIRVLQAAAERWGFALSFEQMEWASCEYYSHHGKMMPDDWHEQLSRFDAIYFGAVGWPDTVPDHISLWGSLLKFRREFDQYVNLRPVRLFPGVPCPLAGKQPGDIDFYVVRENTEGEYSSLGGRVNEGTEHEVVIQESVFTRRGVDRILRYAFELAQSRPRKTLTSATKSNGLAISMPYWDERVEAMAENYPEIRWDKQHIDILCARFVMQPERFDVVVASNLFGDILSDLGPACTGTIGIAPSANLNPERTFPSLFEPVHGSAPDIYGKNIANPIATIWAGAMMLDFLGNGDERFQQAHNGILAAIEEVIAHGPKTPDMKGNATTPQVADAICKIILR	soluble
MMLSSNSFSLNLSNEDYIWPLEEDQEETTDSSGPMMLSPPLPEGACFNFEDRNTVYVHSRRPEDTPKSFELYSIPEDLALDSPFPSCEQTTFFTTKPDKSFLLDIKNSSPLNIGRMQNSRS	soluble
MMNIQVLKVSGNGNINAIADTINKYVIEDGIVHIDAIGIKATYTTVKALIQVVESLVNKGYRFNLRPYYVKVNTAGNDIQPISKTAIRWTLIAKEK	soluble
MMRCPECSTEGWRVLPLTVGAHVKEGLWSKIKGDFYFCSLESCEVVYFNEQTVFRKGELKTRVGVKEREEPKPVCYCNRVTEKMLLEAAEKFGKEKAVEITGAGKGKWCVVTNPSGRCCHWHLERLGFPVGGEKKAAKRVEIKLDGLTCMGCVSAVKAALEEAGANVVEIGLDRAVVEVDEEAELQKLVEAVEGAGYSARLEKR	not soluble
MMRTWWLCERTFRARIYVMARERIPEMTINCARERNSTFTSVPTRTWLSSTISAEYVGRNHAHTTPVPANNKDTITTIAEYHCTE	not soluble
MMSASSPYPIGTPGQPWQASERQAWREQRHIQREYQQEVVPKILALNSLFDVSTYGALSYDPTRYPLYVVKSRHWNANKPTVLITGGVHGYETSGVHGALQFLATAAEPYLAHFNLLAAPCVSPWGYETINRWNPNAIDPNRSFVQDSPAEEAALLMAMVAEHGPILLHIDLHETTDTDESEFRPALAARDGKAYLEGSIPDGFYTVGDTENPQLAFQQAVIDSVRRVTHIAPADENHEIIGSPVVAEGVILYPMRELGLCGGMTDCTYSTTTEVYPDSPKVTAQLCNDAQVAAIIGALDYVLANEQSLLGE	not soluble
MMSTPALRPYLPEDAAVTAAIFVASIEQLTADDYSEEQQEAWASAADDEAKFAARLSGQLTLIATLQGVPVGFASLKGPDHIDMLYVHPDYVGRDVGTTLIDALEKLAGARGALILTVDASDNAAEFFAKRGYVAKQRNTVSINGEWLANTTMTKSLADSAAPGASS	soluble
MMSTSIPDVAVHDSPAIAAPLRWVGMDGIVVPVQLTTADGGQHVIGRARAQIDLPAMGVKGIHMSRLYRLLDTYAVEPLTPVGICGLLSAMVNSHADCASTAARVDWYFDWLRRVPALVSNDLSGWRGYPVWLRAEYSAGHVQFWLCVEVAYSSTCPCSAALARQMLADAFLQEHVEVSALSPETVADWLRSNGSYATPHSQRSLARIEVALTEQAVELGLPALVDCAERILSTPVQAAVRRVDEQAFARLNGANLMYVEDATRRLQHGLAIHYSAFRVHVRHLESLHPNDAVASTADE	not soluble
MMTQGPNLIGIHTNTKENEETQKFVNWFLNTSLTWDNNESKTPAQYFTESASYILPLKETFTGSNNKGQSGKNDGKNSNNTFKAKALELFKEQSENKIVGYSDPSDFRGGKFRESIGSAFNATVNSHVDFNTFVANFRANLGSGYDK	soluble
MMTRESIDKRAGRRGPNLNIVLTCPECKVYPPKIVERFSEGDVVCALCGLVLSDKLVDTRSEWRTFSNDDHNGDDPSRVGEASNPLLDGNNLSTRIGKGETTDMRFTKELNKAQGKNVMDKKDNEVQAAFAKITMLCDAAELPKIVKDCAKEAYKLCHDEKTLKGKSMESIMAASILIGCRRAEVARTFKEIQSLIHVKTKEFGKTLNIMKNILRGKSEDGFLKIDTDNMSGAQNLTYIPRFCSHLGLPMQVTTSAEYTAKKCKEIKEIAGKSPITIAVVSIYLNILLFQIPITAAKVGQTLQVTEGTIKSGYKILYEHRDKLVDPQLIANGVVSLDNLPGVEKK	soluble
MMVPPRPGFAPLSLESINDRMEMHLFLTSACILYHIYIRDNLLIYQEIWTKYWRGRLAESALKNEISALYLRLPFPRPPTLQSIAEQEVICKDAAPIYVYCSREAMLSHVQSKDLCQFGRANLLACTLAPYRTGVTIEMVRCLFKRLRDGNRVEAGTGEEDLSHFVAFLPTTAFRRGPRFYLGGENVQFFLREGGLELPCHIIAFGRALFSEILADGSSWDWKSVGESSRLNHVRASVELSRNVPTAETTDNWAEAALGTDAVYPVRPPNLTPTQDHPCKPLLSGNRVPNERHRPWKRFFKKLRSVSKHFYFNRLEHHHHHH	soluble
MMVRILTRLGQVREAEEKYRRELVDFRMGEVYGNLRAIIADEDVEVRAGEAKPVKIKEVSIPANHIVFMCAYATNPLGHPIAAGEETPLPISMDRKADHATFVAAADGKISRNDLLGVLIILPVELTH	not soluble
MNADKFVETTISDFMRLNSSRDFEYFVSIAKQLYSRGCRDYYTEAFLTHLKTIFPITEENAEKWLKYGEMLGTVGEKDFRTDIFEQMMKDFVDSNKLSQIAAKFHGFVESVDDWNLLAECLFSRVRALEHKINLTASAPMATDPSESSC	not soluble
MNAFDRARQSAIAAAREARGTYRNGLVTPTAGVAPGMTQANLIALPRDWAYDFLLYAQRNPKACPILDVSDAGSPTTLLAEGSDLRTDIPMYRIWRDGKLAEEVSDATQAWAEHDDMVAFLIGCSFTFETPLQEAGIEVRHITDGCNVPMYRTNRACRPAGRLHGEMVVSMRPIPADRVAEASAISGRYPSVHGAPVHIGEPGRLGINDLSRPDFGDAVSIKPGEVPVFWACGVTPQAAVMASGVPFAITHSPGYMFITDVPDSTYHVLEHHHHHH	soluble
MNALVAHNSEAWDKKVETGNEWTVAVEQQVIEQAKKGNWDIRVTPMKDVPKDWFPPIKGLKVLCLASGGGQQGPVLAAAGADVTVLDNSEKQLNQDRMIAERDGLTIHTVKGSMDDLSVFNDESFDVIVHPVANVFVENVLPVWKEAYRVLKRNGILISGFVNPVVFLFDTVLEQQGVLKVKHSIPYADPEDLPKHKVKELIENNEALEFGHSLEDQIKGQIDAGFIVTGFYEDKGGFVLDQYIHTYSATRSVKVLEHHHHHH	soluble
MNANCSSTAAVICEKKLHRPYSKHCPKHWVYNKETQACYRTISKTNMTILEADNKCFDYGFEHRQDAMLTSIESESENQFVMNLAKEKDANFEFIYLGGYGRSRNGNKWHWMDGSEFNYMNWDRGMPFGRRALAVLVMNKRGKWINHYADKILSQYNAVAVCKFKS	not soluble
MNANLNMDVIRSALLAGEVDDAYKVIFNARKKLELYKSTTGDSRYDPYYEFISILDDVVRGRRSWKDLKAYIDGNMDALSKFIDPDFLRSFPYYLFFSIDRYNVRFPYFDGKRCDDR	not soluble
MNARSTRFTQDEVLDLIIVGGGINGAGIAADATGRGLKVGLYDAKDFASATSSASSKLVHGGLRYLEHYEFRLVSEALAEREVLLKKAPHIVTPMRFRLPHRPFLRPAWMIRAGLFLYDNLGKRTSLPASHKVNLKAGSVTKPEMQIGFEYSDCWVDDARLVILNAMQAQEQGAEVLNYCTVEKAERMGDLWHVTLLDEQTQQRFERRSHALVNAAGPWVKQFLNENAHVSSPYGIRLIQGSHIIVPRIHDEPQAYILQNEDKRIVFVIPYLDDYSMIGTTDVEYKGDPRKVAITDAERDYLISIVNKHFMREIARSDIIAEFSGVRPLCDDESNSPQAITRDYTLSLDQQADEAPLLSIFGGKLTTYRKLGEAAMKHLAPFFPKMKAPWTADAPLPGGENFDYAALKNQLVAAFPFITESVIERWLRSYGSRTTQLLAGVTGIEDLGIAFSGELYQREIDYLCEKEFARHAQDIFWRRSKLGLNHDTSVVEEVESYLQQKFHAEQPLKATVLEHHHHHH	soluble
MNASAPIPLNETQRLLRIQELCVLEDTSDEVFDEIVAMTAEFFQTPIALVSIVDEHRQWFRARVGLSARETPRNVSFCAYTILSDTLFEIPDATLDERFMNNSLVTGHPDIRYYAGAPLITDDGLALGSLCVIDTKPREPMSEHQTQMLKRFASLVMKRIVSLRL	not soluble
MNCYNKFAHIYDKLIRADVDYKKWSDFIIEKCVENNLVFDDYLDLACGTGNLTENLCPKFKNTWAVDLSQEMLSEAENKFRSQGLKPRLACQDISNLNINRKFDLITCCLDSTNYIIDSDDLKKYFKAVSNHLKEGGVFIFDINSYYKLSQVLGNNDFNYDDDEVFYYWENQFEDDLVSMYISFFVRDGEFYKRFDEEHEERAYKEEDIEKYLKHGQLNILDKVDCYSNKKVEKFTERITYLVKLGGKSNGR	soluble
MNDAVEVELEPVTYHYFNAGAAGKDLNTNETYIGKMLEEKTGVNFKVEHLVGDINQRTGVMIASGDYPDVIVPDAAIDALLDAGAFIPLNDLLEEHGPNLLEAYGDYLHMFTHDDGNIYYIPFGATVNEFQPNPNIDQGAFWIQRGILKEYGFPEINTLDEYLDIITRYAKENPEIDGMRTIPFTGLTYDWRFFAFTNVPNHLAGYPNDGGVMVDMDTHEASVYADSEYAKRWLKALNELNAEGLLDQEMFVMNYDEYLEKLSSGRVLGFFDYGWQFGTASNALRDAGNPDREYMALPVVFDEGIKDQYIDPPAFTGNRGVGITVNAENPERIIQFWDELIKEDNQRLVMWGIEGEHYNVDENGRFYQTEEQIEIVNNQNFRDEFGMTTFEWSWPRINGTFSDGNAVEARRQPEVAFASYNDDDKEYLEAYGISTFAELFSEPDERPWYPAWSANIEQGSPQQIFEERADEILRRHYARIVLADPADFDKEWDDFVQAYRSLDVDAYENFFTEVVQARVRGEWLEHHHHHH	soluble
MNDFLNFTQQKREEPQQLVLIKYPGIVKNVDKALQTMGGLQLISQSHFNNHSLELSHTPDNPYTSRIMAERKPQDNVSSGTLHLVMKVRRKKIDPTKIKTSFLGLVNTVYTFDVMCDFQYLPLKKRVGCDTFEDLIPKLIPTDIASALSWWDASESVATPLFLPPYQFSRYLTPSTKILGRETDHTEKTKNAQKKGYGQNLRVERKALSVTVNAKEEFPLEPSQEAVDEAMFRCKHDEPHRLLRELFDERPMWTRMGLLYRTRIDDSLLRSILQKYAFYILSGPWGRLWCKFGYDPRTDRNGGLYQTIMVSFRQHGSIPERQRLKVSSDRAQTINHTADVSEPVTYMYEPGKLPRIRQMWYCVMDVRLPQAMNELVAVVENNTPPTPEEVRDKGWLPNTLLEKIRDLIKEDVARTSAELEGLMNDTAPGEEEF	not soluble

— the DeepSol protein solubility set
